Test results taken from PMC11790859.

Molecular target: kalium channelrhodopsin 1 from Hyphochytrium catenoides, slow-cycling mutant C110A (HcKCR1_C110A) (Hyphochytrium catenoides)
Test: cryo-EM structure

stoichiometry N: 3
Substance: kalium channelrhodopsin 1 from Hyphochytrium catenoides, slow-cycling mutant C110A (HcKCR1_C110A) (domain or fragment)
